Data: PMC9126943, “ADAMTS4-specific MR probe to assess aortic aneurysms in vivo using synthetic peptide libraries” (Nature Communications, 2022)
Entries after “also recorded” stand apart in the source; their conditions may differ. Where a SMILES comes first, the peptide text is derived from it. Bridges are numbered along the chain shown (N, C = ends). The star is where a group is joined. Cy5(nonsulfonated) = CN1C(=CC=CC=CC2=[N+](CCCCCC(=O)*)c3ccccc3C2(C)C)C(C)(C)c2ccccc21; DOTA = O=C(O)CN1CCN(CC(=O)O)CCN(CC(=O)*)CCN(CC(=O)O)CC1

What was measured:
[1] = target: T1, ADAMTS4 (Homo sapiens, UniProt O75173); experiment: Relaxivity at 3 Tesla, unbound and bound to ADAMTS4; assay type: physicochemical; conditions: 3 T, 1% BSA in PBS
T1 construct: purchased R&D systems 4307-AD-020
T1 sequence (O75173 213-837): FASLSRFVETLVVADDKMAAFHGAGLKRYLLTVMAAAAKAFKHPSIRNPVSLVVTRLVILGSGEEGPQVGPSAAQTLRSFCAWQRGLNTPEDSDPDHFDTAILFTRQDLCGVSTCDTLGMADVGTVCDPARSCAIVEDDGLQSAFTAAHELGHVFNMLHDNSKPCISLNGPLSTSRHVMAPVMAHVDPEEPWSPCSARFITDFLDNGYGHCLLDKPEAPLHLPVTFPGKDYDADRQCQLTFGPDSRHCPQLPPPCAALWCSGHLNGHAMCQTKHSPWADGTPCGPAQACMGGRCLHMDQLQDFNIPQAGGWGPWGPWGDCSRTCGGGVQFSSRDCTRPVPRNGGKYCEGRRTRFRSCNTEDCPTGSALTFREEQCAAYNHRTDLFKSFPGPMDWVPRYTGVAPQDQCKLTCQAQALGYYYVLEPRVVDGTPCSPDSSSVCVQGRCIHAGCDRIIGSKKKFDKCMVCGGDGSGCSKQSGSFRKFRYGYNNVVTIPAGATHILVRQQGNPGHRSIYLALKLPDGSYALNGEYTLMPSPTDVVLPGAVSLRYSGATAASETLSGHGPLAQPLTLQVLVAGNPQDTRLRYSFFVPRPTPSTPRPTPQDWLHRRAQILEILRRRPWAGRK
Procedure: One milliliter of a 1 µg/ml solution of the ADAMTS4-specific probe in 1% BSA in PBS buffer was measured in a reaction tube using a 3 T MRI scanner. 1% BSA in PBS buffer was used as a negative control. After each scan, 50 µl of a 0.2 µg/µl solution of ADAMTS4 (R&D systems, 4307-AD-020) was added to one reaction tube, while 50 µl of the 1% BSA in PBS buffer was added to the second reaction tube. Tubes were shaken and measured again. The following ADAMTS4 concentrations were measured: 0 µg, 10 µg, 20 µg, 30 µg, 40 µg, 50 µg, and 60 µg.

[2] = target: T2, ADAMTS5 (Homo sapiens, UniProt Q9UNA0); experiment: MST instrument, ligand-dependent fluorescence change, Cy5-labeled peptide vs ADAMTS5; assay type: binding; conditions: Cy5-labeled peptide 3 nM, ADAMTS5 starting concentration 2.46 µM, n = 3
T2 construct: His; purchased BioTeZ Berlin-Buch GmbH 30 400 502
T2 sequence (Q9UNA0 262-930): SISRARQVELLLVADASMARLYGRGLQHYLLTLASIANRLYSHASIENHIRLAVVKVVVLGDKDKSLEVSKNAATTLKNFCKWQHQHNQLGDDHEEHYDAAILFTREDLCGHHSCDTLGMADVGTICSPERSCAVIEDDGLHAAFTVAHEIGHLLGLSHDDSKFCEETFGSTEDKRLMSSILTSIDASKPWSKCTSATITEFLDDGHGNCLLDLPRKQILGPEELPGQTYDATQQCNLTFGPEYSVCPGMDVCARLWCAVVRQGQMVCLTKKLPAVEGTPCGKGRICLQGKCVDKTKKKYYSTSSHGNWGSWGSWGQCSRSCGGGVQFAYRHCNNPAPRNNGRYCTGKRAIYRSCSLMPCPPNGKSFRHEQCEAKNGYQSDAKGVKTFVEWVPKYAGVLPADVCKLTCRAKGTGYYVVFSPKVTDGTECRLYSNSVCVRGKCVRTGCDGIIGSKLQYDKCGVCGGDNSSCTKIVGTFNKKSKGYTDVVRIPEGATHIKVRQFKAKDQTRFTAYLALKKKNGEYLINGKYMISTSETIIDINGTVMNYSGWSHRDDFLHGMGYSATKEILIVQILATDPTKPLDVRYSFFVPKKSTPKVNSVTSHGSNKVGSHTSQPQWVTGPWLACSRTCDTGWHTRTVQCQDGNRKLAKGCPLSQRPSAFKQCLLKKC
Procedure: Microscale thermophoresis (MST) was performed on a Monolith Pico (NanoTemper, Munich, Germany). The Cy5-labeled peptides were diluted into the MST buffer (150 mM NaCl, 50 mM TRIS-HCl, 5 mM CaCl2, and Tween-20) to reach a dilution of 6 nM. ADAMTS4, ADAMTS5, and ADAMTS1 were directly used with the supplied concentration. For ADAMTS4, the starting concentration was 4.96 µM, while for ADAMTS1 it was 4.88 µM and for ADAMTS5 it was 2.46 µM. Since we saw a loss of binding after centrifugation, the use of protein concentrators were inappropriate. 20 µl of the protein solutions were transferred into a PCR tube. 10 µl of this first vial was transferred into a second vial and mixed by pipetting with 10 µl of the MST buffer. […] The capillaries were transferred into the Monolith tray and measured with 10% excitation power on the pico-red excitation on high MST power at 25 °C. […] We detected a ligand-dependent fluorescence change for some of the systems. We checked for ADAMTS4 and the ADAMTS4-specific-Cy5-labeled probe via a saturation test for specifying the ligand-dependent fluorescence change. […] The samples were heated at 95 °C for 5 min and measured in the MST. The fluorescence difference between the concentrations was afterward at the same level. Each measurement was repeated three times independently and the binding constant was calculated by merging all three measurements. […]

SMILES	longitudinal relaxivity, unbound probe [1] [mM⁻¹ s⁻¹]	longitudinal relaxivity, bound probe ([1]; ADAMTS4 added) [mM⁻¹ s⁻¹]	binding to ADAMTS5, in words [2]
N=C(N)NCCC[C@@H]1NC(=O)[C@H](CCCNC(=N)N)NC(=O)[C@H](CO)NC(=O)[C@@H](N)CSSC[C@@H](C(=O)N[C@@H](CO)C(=O)NCC(=O)NCC(=O)N[C@@H](CO)C(=O)NCC(=O)NCC(=O)N[C@@H](CCCCNC(=O)CN2CCN(CC(=O)O)CCN(CC(=O)O)CCN(CC(=O)O)CC2)C(=O)NCC(N)=O)NC(=O)CNC1=O (Gd complex, metal not drawn) [ADAMTS4-specific probe] (H-CSRRGCSGGSGGK(DOTA)G-NH2; disulfide 1-6)	3.4 ± 0.19	6.13 ± 0.73	
C[N+]1=C(C=CC=CC=C2N(CCCCCC(=O)NCCCC[C@H](NC(=O)CNC(=O)CNC(=O)[C@H](CO)NC(=O)CNC(=O)CNC(=O)[C@H](CO)NC(=O)[C@@H]3CSSC[C@H](N)C(=O)N[C@@H](CO)C(=O)N[C@@H](CCCNC(=N)N)C(=O)N[C@@H](CCCNC(=N)N)C(=O)NCC(=O)N3)C(=O)NCC(N)=O)c3ccccc3C2(C)C)C(C)(C)c2ccccc21 [Cy5-labeled probe] (H-CSRRGCSGGSGGK(Cy5(nonsulfonated))G-NH2; disulfide 1-6; N-terminus and C-terminus assumed)			determination of the binding constant is not possible; also recorded: plateau was not reached; also recorded: a ligand dependent fluorescence change occurs
